How the values were obtained:
A549 cells = experiment: Cell growth inhibition assay (methylene blue) after gamma-irradiation, A549; assay type: cell-based, human; conditions: 2 μg/ml, with or without 7 or 10 Gy, 72 hours
Protocol: Tumor cells were seeded in wells of three 96-well plates in 3 different densities (0.5×10^4, 1×10^4 and 2×10^4 cells/well, producing single-cell, spare or semi-contact layer). After cells had attached to plastic, CBLB502 (2 μg/ml) was added to the wells of non-irradiated cells, or 15 min prior to 7 Gy or 10 Gy of gamma-irradiation. Control wells received equal volume of vehicle (PBS). All points were done in quadruplicate. 72 hours after irradiation, medium was replaced with methylene blue in 50%-methanol and the relative numbers of viable cells in wells were measured using spectrophotometer at 650 nm. This experiment was also repeated with fixed dose of 1×10^4 A549 cells/well, CBLB502 was added 1 hour before 5, 10 or 15 Gy of gamma-irradiation (data not shown). We observed a similar effect of flagellin in all tested experiment conditions.

mice [1] = experiment: Acute toxicity in mice; assay type: in vivo, mouse; conditions: s.c. 0.5, 1, 2, 4 and 8 mg/kg, several days after administration
Protocol: The lethal dose of Salmonella flagellin is between 1 mg/kg (systemic inflammation) and 10 mg/kg (100% lethality). We subcutaneously administered increasing doses of AA′ to mice (4 mice per dose group) at 0.5, 1, 2, 4 and 8 mg/kg. Due to the lower (˜60%) molecular weight, 8 mg/kg of AA′ correspond to a molar-equivalent dose of 13.3 mg/kg of flagellin. […] The reduced toxicity may be sue to the absence of the central pro-inflammatory domain in the AA′ fragment.

[2] = Blood urea (QuantiChrom Urea Assay Kit) as renal toxicity of cisplatinum; conditions: 0.04 mg/kg s.c., Day 4 post-treatment, n=3
Description: Urea was detected in mouse blood serum at Day 4 post-treatment using a QuantiChrom Urea Assay Kit (BioAssay Systems).

[3] = tested on: MeI-7, MeI-29, HCT116, HT1080, NKE and MAEC cells; experiment: Growth inhibition assay after gamma-irradiation in multiple cell lines; assay type: cell-based; conditions: 2 μg/ml, irradiated (10, 15 Gy) or not, 48 hours
Protocol: Based on the results using A549 cells, several additional tumor cell lines (human melanoma MeI-7 and MeI-29, colon cancer HCT116, […] HT1080), immortalized kidney epithelial cells (NKE) and normal mouse aortal endothelial cells (MAEC)) were tested in growth inhibition assay after 10 and 15 Gy of gamma-irradiation, as compared with intact control, with or without pretreatment with CBLB502. Cells were seeded in 96-well plates night before the treatments. CBLB502 (2 μg/ml) was added to the wells 4 hrs, 1 hr or 10 min before irradiation (all points were done in quadruplicate). 48 hours later, methylene blue staining was performed to determine the relative amount of the viable cells in the wells. The percent of growth inhibition was calculated from the OD650 in control non-irradiated wells, taken as 0% inhibition.

mice [4] = conditions: known from literature; cited from earlier work

In the case of “AA′: flagellin fragment (1-177)-Linker-(402-505), SEQ ID NO: 8”, the “effect on cell numbers” value (A549 cells) is reported as “no or slight effect”, the “detrimental effects (mortality, morbidity, systemic inflammation)” value (mice [1]) is reported as “no visible detrimental effects” and the “mean OD 490 (blood urea), CLBL502 alone” value [2] is reported as “less than 0.50”. The “effect on tumor cell growth” value [3] was “no or only a slight inhibitory effect”.
For “flagellin: Salmonella dublin FliC flagellin, 505 amino acids, SEQ ID NO: 1; recombinant full-length protein”, the highest tolerable dose (mice [4]) is listed as 300 μg/mouse.

Source: US8580321B2, “Method for reducing the effects of chemotherapy using flagellin related polypeptides” (priority 2003, dated 2013)
